Results published in paper PMC6770826, “HDX and Native Mass Spectrometry Reveals the Different Structural Basis for Interaction of the Staphylococcal Pathogenicity Island Repressor Stl with Dimeric and Trimeric Phage dUTPases” (Biomolecules, 2019).

Tests used:
[1] = molecular target: φNM1 phage dUTPase (Staphylococcus aureus phage φNM1) (UniProt A0EWK2)
[2] = molecular target: φNM1 phage dUTPase (Staphylococcus aureus phage φNM1) (UniProt A0EWK2); assay: native MS; electrospray QTOF, positive ion mode; proteins at 40 μM in 5 mM NH4HCO3 pH 8.0
[3] = molecular target: Stl repressor protein of S. aureus pathogenicity island SaPIbov1 (Staphylococcus aureus (pathogenicity island SaPIbov1)); assay: cross-linking; disuccinimidyl suberate (DSS, 20 mM), 20 °C, 1 h; 20 μM each protein alone or 1:1 mixture (40 μM total); SDS-PAGE
[4] = molecular target: φNM1 phage dUTPase (Staphylococcus aureus phage φNM1) (UniProt A0EWK2); assay: as above
[5] = molecular target: φNM1 phage dUTPase (Staphylococcus aureus phage φNM1) (UniProt A0EWK2); assay: enzyme inhibition (steady-state dUTPase activity); DUTφNM1 with Stl at 0-300 nM, pre-incubated 5 min; 293 K; 1 mM HEPES-HCl pH 7.5, 5 mM MgCl2, 150 mM KCl, phenol red; quadratic binding equation fitted; apparent
[6] = molecular target: the molecule itself; assay: cross-linking; disuccinimidyl suberate (DSS, 20 mM), 20 °C, 1 h; 20 μM each protein alone or 1:1 mixture (40 μM total); SDS-PAGE

| Molecule | maximal inhibition of the steady-state dUTPase activity of DUTφNM1 by Stl (0-300 nM) [1] [%] | stoichiometry N (Stl per DUTφNM1) [2] | stoichiometry N [3] | stoichiometry N (Stl per DUTφNM1) [4] | Ki [5] [nM] | stoichiometry N [6] |
| --- | --- | --- | --- | --- | --- | --- |
| Stl repressor protein of S. aureus pathogenicity island SaPIbov1 (natural protein) | 40 | 1 | 2 | 1 | 34 | – |
| φNM1 phage dUTPase (enzyme, dUTPase of Staphylococcus aureus phage φNM1, Uniprot ID A0EWK2, residues 2-178; monomer mass 20976 Da printed; also called DUTφNM1; homodimeric φNM1 dUTPase; source: E. coli BL21 Rosetta (DE3), purified (glutathione-agarose, on-column thrombin cleavage); not shown: GST, N-terminal, cleaved) TNTLTIDQLQELLQIQKEFDDRIPTLNLRDSKIAYVVEFFEWFNTLETFKNWKKKPGKPLDVQLDELADMLAFGLSIANQVGVSSEEIKEAIESSFKDTEFHKMFNFKDKEFAQDAVVSTPQIIFKEFYPDQQAIVIVIDIAYNLYSIDQLIDAYKKKMKRNHERQDGTADAGKGYV | – | – | – | – | – | 2 |
